The text below walks through data of patent US20230203188A1.

The term EC50 denotes the concentration needed to bring the measured effect to its halfway point. High values mean a less potent agent, low ones a more potent agent.

Experiment [1] concerns the target full-length cyno SIRPβ1 (XP_005568598, clone PA2), on CHO cells (cynomolgus monkey). The experiment can be described thus: flow cytometry on CHO cells expressing the target. On the technique in general: A flow cytometer gives signals particle by particle.
The target of experiment [2] is full-length cyno SIRPα (XP_015313155, clone P3HD10), on CHO cells (cynomolgus monkey). Kind of experiment: flow cytometry on CHO cells expressing the target.
Experiment [3] concerns the target ED-tagged human SIRPα V1 receptor on Jurkat SIRPα-V1 signaling cells (human) (UniProt P78324). Kind of experiment: cell-based or functional assay.
Experiment [4] deals with ED-tagged human SIRPα V2 receptor on Jurkat SIRPα-V2 signaling cells (human) (UniProt P78324). Kind of experiment: cell-based or functional assay.
Sequence of ED-tagged human SIRPα V2 receptor on Jurkat SIRPα-V2 signaling cells (human) (P78324 31-504): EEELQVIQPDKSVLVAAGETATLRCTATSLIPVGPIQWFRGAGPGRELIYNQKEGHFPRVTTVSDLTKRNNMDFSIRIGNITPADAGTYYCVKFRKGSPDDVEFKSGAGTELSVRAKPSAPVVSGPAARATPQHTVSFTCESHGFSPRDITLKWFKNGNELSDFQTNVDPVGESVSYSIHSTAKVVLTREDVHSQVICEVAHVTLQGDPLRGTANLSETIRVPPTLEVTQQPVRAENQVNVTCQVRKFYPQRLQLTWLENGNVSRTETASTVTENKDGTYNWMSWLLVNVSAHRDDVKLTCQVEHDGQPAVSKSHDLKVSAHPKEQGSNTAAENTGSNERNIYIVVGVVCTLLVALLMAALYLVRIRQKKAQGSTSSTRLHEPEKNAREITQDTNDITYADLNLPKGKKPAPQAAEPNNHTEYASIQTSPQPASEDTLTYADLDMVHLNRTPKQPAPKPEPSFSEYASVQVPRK

Sequence of KWAR23 (antibody) (VH): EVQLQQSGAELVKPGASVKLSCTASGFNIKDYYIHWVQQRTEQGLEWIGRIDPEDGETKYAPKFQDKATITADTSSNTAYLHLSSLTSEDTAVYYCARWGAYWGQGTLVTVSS
Sequence of KWAR23 (antibody) (VL): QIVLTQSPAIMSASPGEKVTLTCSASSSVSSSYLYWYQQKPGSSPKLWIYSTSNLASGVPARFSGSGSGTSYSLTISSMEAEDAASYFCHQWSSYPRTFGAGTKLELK
Sequence of ED-tagged human SIRPα V1 receptor on Jurkat SIRPα-V1 signaling cells (human) (P78324 31-504): as the sequence (P78324 31-504) above

Take KWAR23 (antibody): the figures for the 50% effective concentration (EC50) in experiment [1] and in experiment [2] were 0.2 nM and 0.5 nM, respectively. In addition, the IC50 of SIRPα signaling (SHP-1 recruitment, enzyme fragment complementation, Jurkat reporter cells) in experiment [3] and in experiment [4] was 0.04 nM each time.
